This is an account of results in patent publication US20220119534A1 (DRAGONFLY THERAPEUTICS, published 2022).

Residue numbers refer to the chain shown, from its start.

T1: human CLEC12A on cells (HL60, PL21, Ba/F3-hCLEC12A) (human, UniProt Q5QGZ9 1-265)
T1 construct: Endogenous on the AML lines HL60 and PL21; brought into mouse Ba/F3 cells by retroviral transduction; The cell line stands under assay; also called CLL-1
T1 sequence: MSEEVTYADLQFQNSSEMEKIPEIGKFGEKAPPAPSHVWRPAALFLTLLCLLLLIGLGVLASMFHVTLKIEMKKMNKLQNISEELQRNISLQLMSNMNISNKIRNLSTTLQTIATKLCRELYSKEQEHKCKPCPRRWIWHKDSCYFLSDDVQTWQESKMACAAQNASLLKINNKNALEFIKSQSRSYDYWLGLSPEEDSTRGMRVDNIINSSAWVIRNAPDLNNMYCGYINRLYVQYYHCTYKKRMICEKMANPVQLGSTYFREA

T2: recombinant human CLEC12A-His (human, UniProt Q5QGZ9 65-265)
T2 construct: also called hCLEC12A-His; hCLEC12A
T2 sequence: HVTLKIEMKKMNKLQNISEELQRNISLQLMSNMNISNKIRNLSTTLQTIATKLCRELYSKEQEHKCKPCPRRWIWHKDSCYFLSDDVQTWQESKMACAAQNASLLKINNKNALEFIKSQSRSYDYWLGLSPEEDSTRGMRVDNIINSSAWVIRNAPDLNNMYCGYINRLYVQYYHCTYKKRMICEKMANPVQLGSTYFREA

B1: hcFAE-A49.h6E7 (Duobody TriNKET) (bispecific antibody, V domains shown)
VH 1: EVQLVQSGAEVKKPGASVKVSCKASGYSFTDYYMHWVRQAPGQGLEWIGRINPYNGAAFYSQNFKDRVTLTVDTSTSTAYLELSSLRSEDTAVYYCAIERGADLEGYAMDYWGQGTLVTVSS
VL 1: DIQMTQSPSSLSASVGDRVTITCRASQSVSTSSYNYMHWYQQKPGKPPKLLIKYASNLESGVPSRFSGSGSGTDFTLTISSLQPEDFATYYCQHSWEIPLTFGQGTKVEIK
VH 2: EVQLVESGGGLVKPGGSLRLSCAASGFTFSSYSMNWVRQAPGKGLEWVSSISSSSSYIYYADSVKGRFTISRDNAKNSLYLQMNSLRAEDTAVYYCARGAPMGAAAGWFDPWGQGTLVTVSS
VL 2: DIQMTQSPSSVSASVGDRVTITCRASQGISSWLAWYQQKPGKAPKLLIYAASSLQSGVPSRFSGSGSGTDFTLTISSLQPEDFATYYCQQGVSFPRTFGGGTKVEIK
notes: also called Duobody TriNKET based on h6E7 antibody from Genentech
B2: hcFAE-A49.CLL1-Merus (Duobody TriNKET) (bispecific antibody, V domains shown)
VH 1: EVQLVQSGAEVKKPGASVKVSCKASGYTFTSYYMHWVRQAPGQGLEWMGIINPSGGSTSYAQKFQGRVTMTRDTSTSTVYMELSSLRSEDTAVYYCARGNYGDEFDYWGQGTLVTVSS
VL 1: not shown
VH 2: B1 VH 2
VL 2: B1 VL 2
notes: Duobody format; also called Duobody TriNKET based on CLL1 antibody from Merus
B3: AB0237-Dead-2D (other)
chain: QLQLQESGPGLVKPSETLSLTCTVSGFSLTNYGLHWIRQPPGKCLEWIGVIWSGGKTDYNPSLKSRVTISKDTSKNQFSLKLSSVQAADTAVYYCAKYDYDDSLDYWGQGTLVTVSSGGGGSGGGGSGGGGSGGGGSDIQMTQSPSSLSASVGDRVTITCHASQNINFWLSWYQQKPGKAPKLLIYEASNLHTGVPSRFSGSGSGTRFTLTISSLQPEDIATYYCQQSHSYPLTFGCGTKLEIKGSDKTHTCPPCPAPELLGGPSVFLFPPKPKDTLMISRTPEVTCVVVDVSHEDPEVKFNWYVDGVEVHNAKTKPREEQYNSTYRVVSVLTVLHQDWLNGKEYKCKVSNKALPAPIEKTISKAKGQPREPRVYTLPPCRDELTKNQVSLTCLVKGFYPSDIAVEWESNGQPENNYKTTPPVLVSDGSFTLYSKLTVDKSRWQQGNVFSCSVMHEALHNHYTQKSLSLSPG
heavy: EVQLVESGGGLVKPGGSLRLSCAASGFTFSSYSMNWVRQAPGKGLEWVSSISSSSSYIYYADSVKGRFTISRDNAKNSLYLQMNSLRAEDTAVYYCARGAPIGAAAGWFDPWGQGTLVTVSSASTKGPSVFPLAPSSKSTSGGTAALGCLVKDYFPEPVTVSWNSGALTSGVHTFPAVLQSSGLYSLSSVVTVPSSSLGTQTYICNVNHKPSNTKVDKKVEPKSCDKTHTCPPCPAPELLGGPSVFLFPPKPKDTLMISRTPEVTCVVVDVSHEDPEVKFNWYVDGVEVHNAKTKPREEQYNSTYRVVSVLTVLHQDWLNGKEYKCKVSNKALPAPIEKTISKAKGQPREPQVCTLPPSRDELTENQVSLTCLVKGFYPSDIAVEWESNGQPENNYKTTPPVLDSDGSFFLYSWLTVDKSRWQQGNVFSCSVMHEALHNHYTQKSLSLSPG
light: DIQMTQSPSTLSASVGDRVTITCRASNSISSWLAWYQQKPGKAPKLLIYEASSTKSGVPSRFSGSGSGTEFTLTISSLQPDDFATYYCQQYDDLPTFGGGTKVEIKRTVAAPSVFIFPPSDEQLKSGTASVVCLLNNFYPREAKVQWKVDNALQSGNSQESVTEQDSKDSTYSLSSTLTLSKADYEKHKVYACEVTHQGLSSPVTKSFNRGEC
notes: also called AB0237 NKG2D dead arm variant
B4: AB0300 (other, name in EU numbering)
chain: B3 chain with L260A, L261A, P355G
heavy: B3 heavy with L239A, L240A, P334G
light: DIQMTQSPSSVSASVGDRVTITCRASQGISSWLAWYQQKPGKAPKLLIYAASSLQSGVPSRFSGSGSGTDFTLTISSLQPEDFATYYCQQGVSFPRTFGGGTKVEIKRTVAAPSVFIFPPSDEQLKSGTASVVCLLNNFYPREAKVQWKVDNALQSGNSQESVTEQDSKDSTYSLSSTLTLSKADYEKHKVYACEVTHQGLSSPVTKSFNRGEC
notes: Positions are EU numbers, not positions counted on the entries; also called AB0237si
B5: F3'-1292 (other)
chain: B3 chain with A88N, A180I
heavy: B3 heavy
light: B4 light
notes: F3' TriNKET, scFv-Fc chain built from the general F3' description; semi-purified
B6: F3'-1296 (other)
chain: B3 chain with A88N, K97R, A180I
heavy: B3 heavy
light: B4 light
notes: As F3'-1292
B7: F3'-1297 (other)
chain: B3 chain with A88N
heavy: B3 heavy
light: B4 light
notes: As F3'-1292
B8: AB0188 (other)
chain: DIKMTQSPSSLSASVGDRVTITCKASQDIYNYLSWFQQKPGKAPKPLIYRANILVSGVPSRFSGSGSGQDYTLTISSLQPEDIATYYCLQFDAFPFTFGCGTKLEIKGGGGSGGGGSGGGGSGGGGSEVQLVESGGGVVQPGGSLRLSCAASGFTFNSFGMHWVRQAPGKCLEWVAFISSGSTSIYYANTVKGRFTISRDNSKNTLYLQMNSLRAEDTAVYYCARDGYPTGGAMDYWGQGTSVTVSSGSDKTHTCPPCPAPELLGGPSVFLFPPKPKDTLMISRTPEVTCVVVDVSHEDPEVKFNWYVDGVEVHNAKTKPREEQYNSTYRVVSVLTVLHQDWLNGKEYKCKVSNKALPAPIEKTISKAKGQPREPRVYTLPPCRDELTKNQVSLTCLVKGFYPSDIAVEWESNGQPENNYKTTPPVLVSDGSFTLYSKLTVDKSRWQQGNVFSCSVMHEALHNHYTQKSLSLSPG
heavy: B3 heavy
light: B4 light
notes: As AB0185

One test deals with T1, human CLEC12A on cells (HL60, PL21, …). The test can be described thus: flow cytometry, HL60 cells.
Method: (§1) 100,000 cells were seeded per well into a 96-well plate for FACS staining. Cells were washed with PBS. Cells were incubated in a 1:2000 dilution of live/dead dye in PBS for 15 minutes, then washed with FACS buffer. TriNKETs or mAbs were diluted into FACS buffer, and 50 μl containing diluted TriNKET or mAb was added to cells. Cells were incubated on ice for 20 minutes. After the incubation, cells were washed with FACS buffer. Anti-human IgG-Fc secondary antibody was diluted into FACS buffer, and 50 μl was added per well for detection of the bound TriNKETs or mAbs. Cells were incubated for 20 minutes on ice, then washed with FACS buffer. 50 μl of fixation buffer was added to each well, and cells were incubated for 10 minutes at room temperature. Cells were washed with FACS buffer and resuspended in FACS buffer for analysis with BD FACS Celesta SN #H66034400085, or BD FACS Celesta SN #H66034400160. Cells of interest were identified using FSC vs. SSC plot, and an appropriately shaped gate was drawn around the cells. Within the gated cells, doublet cells were removed by viewing FSC-H vs FSC-A plot. Within the single cell population, live cells were gated. Within the live gate, the mean fluorescence intensity (MFI) of each sample and the secondary-only control was calculated. Fold-over-background (FOB) was calculated as the ratio of test article MFI over secondary-only background MFI. Data were fit to a four-parameter non-linear regression curve using GraphPad Prism 7.0.
Take B1: a half-maximal response (EC50) required 1.33 nM and the “FOB (fold over background)” value amounted to 31 fold.
With B2, the EC50 was determined as 2.79 nM and the “FOB (fold over background)” value was 59 fold.
For the molecule B3, the EC50 came out at 1.19 nM and the “FOB (fold over background)” value was determined as 59 fold.
For B4, the response was half-maximal at 1.5 nM (EC50) and the “FOB (fold over background)” value was 65 fold.

For the next test the target is unchanged. Nature of the test: flow cytometry, PL21 cells.
In the case of B1, the midpoint of the response, the EC50, lay at 0.55 nM and the “FOB (fold over background)” value was 10 fold.
For the molecule B2, a half-maximal effect (EC50) was put at 1.13 nM and the “FOB (fold over background)” value came to 15 fold.
For B3, the midpoint of the response, the EC50, lay at 0.63 nM and the “FOB (fold over background)” value is 14 fold.
For B4, the EC50 was found to be 1.58 nM and the “FOB (fold over background)” value stood at 18 fold.

The next test deals with T2, recombinant human CLEC12A-His. The test can be described thus: SPR screening, semi-purified.
Method: Binding affinities of the 18 semi-purified TriNKETs for hCLEC12A were assessed by SPR in screening.
As to B5, the Kd was 3.22 nM, the koff was determined as 0.0013 s⁻¹ and the kon was found to be 402000 M⁻¹ s⁻¹.
For B6, the Kd was determined as 1.34 nM, the koff amounted to 0.00117 s⁻¹ and the kon amounted to 874000 M⁻¹ s⁻¹.
For B7, the Kd was 2.79 nM, the koff was 0.00141 s⁻¹ and the kon is 504000 M⁻¹ s⁻¹.

For the next test the target is unchanged. The test can be described thus: SPR screening, semi-purified. The source holds these as a separate data set.
Consider B8, for which the dissociation constant Kd worked out at 1.58 nM, the koff came to 0.000901 s⁻¹ and the kon turned out to be 569000 M⁻¹ s⁻¹.

The next test concerns the target T1, human CLEC12A on cells (HL60, PL21, …). Nature of the test: flow cytometry, Ba/F3-hCLEC12A cells.
Method: as §1
Take B1: the concentration for a half-maximal effect (EC50) came out at 2.87 nM and the “FOB (fold over background)” value turned out to be 318 fold.
B2: a half-maximal response (EC50) required 4.45 nM and the “FOB (fold over background)” value was determined as 369 fold.
In the case of B3, the EC50 is 2.35 nM and the “FOB (fold over background)” value was 357 fold.
Regarding B4, the response was half-maximal at 2.92 nM (EC50) and the “FOB (fold over background)” value worked out at 368 fold.
